System: G5 1297-1412 (RBS1)
Experiment: EMSA

FMDV IRES domain 5 was tested, and the Kd was 20 µM.

From PMC4027194
